One test addresses T1, CM1.
T1 sequence (peptide): MVPSALTASG
The experiment in a line: cell-based or functional assay.

The target in a further test is T2, CM4.
T2 sequence (peptide): MVVLALTASG
The experiment in a line: cell-based or functional assay.

We go through two substances from US20260035426A1.

Chain of recombinant human MMP2 (P08253 110-660 limits assumed): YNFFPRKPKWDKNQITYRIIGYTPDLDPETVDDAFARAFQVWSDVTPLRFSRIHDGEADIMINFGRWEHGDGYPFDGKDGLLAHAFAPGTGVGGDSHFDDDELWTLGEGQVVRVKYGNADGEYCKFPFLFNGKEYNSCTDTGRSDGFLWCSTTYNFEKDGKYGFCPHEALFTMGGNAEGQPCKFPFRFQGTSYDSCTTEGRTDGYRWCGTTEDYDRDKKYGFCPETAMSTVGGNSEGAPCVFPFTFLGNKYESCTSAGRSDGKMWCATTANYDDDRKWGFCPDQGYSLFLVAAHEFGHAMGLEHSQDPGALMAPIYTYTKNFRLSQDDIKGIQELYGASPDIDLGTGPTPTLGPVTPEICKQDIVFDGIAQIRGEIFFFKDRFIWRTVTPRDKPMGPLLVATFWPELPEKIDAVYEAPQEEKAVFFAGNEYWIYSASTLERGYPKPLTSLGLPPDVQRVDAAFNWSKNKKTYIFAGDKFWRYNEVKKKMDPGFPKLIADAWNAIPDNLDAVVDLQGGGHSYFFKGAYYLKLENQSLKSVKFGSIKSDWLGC

“recombinant human MMP9 (from UniProt P14780 107-707) (enzyme)”: the Cleavage efficiency (EC50) with CM1 is 0.05 µg/mL; with CM4, 0.2 µg/mL.
Take “recombinant human MMP2 (from UniProt P08253 110-660) (enzyme)”: the Cleavage efficiency (EC50) with CM1 amounted to 0.006 µg/mL; in the test with CM4, 0.15 µg/mL.
